Our source for the protein stability index values is the supplement of paper PMC10567573.

± gives the standard deviation.

This series can be described thus: protein stability index of a GFP-peptide fusion (GPS, HEK-293T) (PSI 1-6); higher = more stable.
[1] abbreviates: treatment: DMSO, c terminus: a fixed tail appended.
Where [2] appears, read: treatment: MLN4924 1 uM, 8 h, c terminus: a fixed tail appended.
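Also: 24-mer peptide tiles fused after GFP, lentivirally expressed, FACS-sorted into six equal bins by GFP/DsRed ratio, decoded by Illumina sequencing, PSI is the read-weighted mean bin number.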

Turning to PLYLLTWKIAPAMAAGNTVIAKPS [ALDH8A1], the protein stability index was determined as 2.04 ± 0.52 under setting [1] and 2.11 ± 0.4 under setting [2].

For the sequence PNLTYVYPHTRIQSLVSILRTTVH [CLCN6], the protein stability index was determined as 2.38 ± 0.51 under setting [1] and 2.23 ± 0.17 under setting [2].

Regarding PNVIDNFLCDLYPLLKLACTNTYV [OR4A15], the protein stability index was 2.87 ± 0.2 under setting [1] and 3.12 ± 0.29 under setting [2].

On to PPGNVYWPLRGKREAMLEMLLQHQ [SPAG8], for which the protein stability index runs as follows: under setting [1], 2.52 ± 0.055; under setting [2], 2.65 ± 0.3.

As to PQAFPMSRLWDSRLRHYLGSRYDA [DNAAF3], the protein stability index came to 2.2 ± 0.47 under setting [1] and 2.51 ± 0.35 under setting [2].

For the sequence PQEPRPPKRATKPKKAPKREKSAP [CPXM2], the protein stability index was determined as 5.14 ± 0.46 under setting [1] and 5.42 ± 0.18 under setting [2].

Turning to PQKASAPAADPPRYTFAPSVSLNK [PDLIM7], the protein stability index is, setting by setting: under setting [1], 4.33 ± 0.19; under setting [2], 4.32 ± 0.22.

Turning to PQVFVSNKINAGMYILSPAVLRRI [GMPPB], the protein stability index reads like this: under setting [1], 2.21 ± 0.39; under setting [2], 2.06 ± 0.26.

As for PRCPGSVNEKLPQREGTGKTVSLQ [SMOC2], the protein stability index runs as follows: under setting [1], 5.03 ± 0.14; under setting [2], 5.03 ± 0.54.

As to PRMNEVYTRLGEMNNAVRNLQELL [CEP70], the protein stability index was determined as 3.78 ± 0.18 under setting [1] and 3.86 ± 0.23 under setting [2].

Take PSAELVQTRMAVSLTAAETLALQG [ZNF232]: the protein stability index worked out at 3.45 ± 0.35 under setting [1] and 3.23 ± 0.23 under setting [2].

Turning to PSLFHLNTLKRENSSPRVMQRKQS [DLC1], the protein stability index is, setting by setting: under setting [1], 3.92 ± 0.16; under setting [2], 4.2 ± 0.15.

With PSPDMECADVPLLTPSSKEMMSQA [ETS1], the protein stability index was 5.15 ± 0.25 under setting [1] and 5.2 ± 0.11 under setting [2].

For PSVFDGLGDLLMPTMAPAGQPAPV [SNAP91], the protein stability index amounted to 3.54 ± 0.25 under setting [1] and 3.57 ± 0.2 under setting [2].

PSVRSSKDGKLLAATLLLALLSCC [TNFSF13B] displayed a protein stability index under setting [1] of 2.73 ± 0.66 and a protein stability index under setting [2] of 2.81 ± 0.85.

Turning to PTEGAGSPAKASQASKLRASKEEK [FBF1], the protein stability index by setting is: under setting [1], 5.41 ± 0.21; under setting [2], 5.43 ± 0.28.

Turning to PVAQSTDGIRGKVGHARGLHAWQI [SPSB4], the protein stability index reads like this: under setting [1], 2.68 ± 0.37; under setting [2], 2.84 ± 0.29.

With PVDLWACGVILYILLVGYPPFWDE [CAMK2A], the protein stability index turned out to be 3.08 ± 0.1 under setting [1] and 2.56 ± 0.096 under setting [2].

On to PVPAFQSDGTDEPESKEPVEKEEE [SMG5], for which the protein stability index is, setting by setting: under setting [1], 5.57 ± 0.24; under setting [2], 5.56 ± 0.24.

As for PVYRRDCHEEVYAGSHQYPGRGVY [ACBD3], the protein stability index under setting [1] is 2.89 ± 0.29 and the protein stability index under setting [2] was found to be 3.03 ± 0.2.

Regarding PWDESGSGCLPPEPLFEAGDATLA [FOXJ1], the protein stability index reads like this: under setting [1], 5.07 ± 0.39; under setting [2], 5.08 ± 0.23.

As to PWSLFDVLVEKYGWPHEDAAQFTD [SRPK2], the protein stability index turned out to be 2.61 ± 0.28 under setting [1] and 2.88 ± 0.51 under setting [2].

As for PYDLHLRSQSLTMQDELNAVFHN [NEUROD6], the protein stability index by setting is: (treatment: DMSO, c terminus: native) 3.44 ± 0.22; (treatment: MLN4924 1 uM, 8 h, c terminus: native) 3.71 ± 0.15.

For PYGPPPDAVQTSLMDEGASSEKKR [RBBP5], the protein stability index runs as follows: under setting [1], 5.37 ± 0.25; under setting [2], 5.463 ± 0.047.

For the sequence QAHGSEGLTFQGLLPLTELSVCPL [PLEKHN1], the protein stability index turned out to be 3.08 ± 0.29 under setting [1] and 3.05 ± 0.19 under setting [2].

On to QAIFHAVDQYLALPDVSLGRYAYV [MCOLN1], for which the protein stability index runs as follows: under setting [1], 3.16 ± 0.59; under setting [2], 2.68 ± 0.31.

Take QAKQEMNESRRQIQSLTCEVDGLR [PRPH]: the protein stability index under setting [1] is 4.55 ± 0.37 and the protein stability index under setting [2] was found to be 4.78 ± 0.18.

Turning to QALLIRERILGPSHPDTSYYIRYR [FEM1A], the protein stability index is, setting by setting: under setting [1], 2.31 ± 0.2; under setting [2], 2.56 ± 0.33.

Consider QCLDKTNESALVKEKELSIELANI [MTUS2], for which the protein stability index is 4.79 ± 0.27 under setting [1] and 4.77 ± 0.22 under setting [2].

With QDIAQEISEAFSQRVGFGDDFDED [CHMP4C], the protein stability index reads like this: under setting [1], 5.62 ± 0.21; under setting [2], 5.5 ± 0.18.

In the case of QDTEVFSWSDNERSSSRINIPERA [FAM104B], the protein stability index under setting [1] was determined as 4.62 ± 0.094 and the protein stability index under setting [2] amounted to 4.53 ± 0.067.

QELLKRTIMQAVSQIRLNREHKET [TEKT4]: the protein stability index reads like this: under setting [1], 2.63 ± 0.17; under setting [2], 2.79 ± 0.36.

As for QFIANLDQLNDGQDFAKDLLKTLY [PSD2], the protein stability index amounted to 2.21 ± 0.43 under setting [1] and 2.42 ± 0.28 under setting [2].

QFYMFGWTHVTLLIVVTQSHLVIH [CDS2]: the protein stability index under setting [1] amounted to 2.85 ± 0.37 and the protein stability index under setting [2] is 3.31 ± 0.59.

As to QGDLASLRAELQGHHAEKLPAGAG [TNFSF13B], the protein stability index by setting is: under setting [1], 4.72 ± 0.2; under setting [2], 4.76 ± 0.18.

With QGGELVVAYPYDLVRSPWKTQEHT [CPXM2], the protein stability index under setting [1] was determined as 2.58 ± 0.21 and the protein stability index under setting [2] amounted to 2.15 ± 0.25.

In the case of QGGEYLPKPEPPQLVLAYDYSREV [FEM1A], the protein stability index is, setting by setting: under setting [1], 3.93 ± 0.23; under setting [2], 4.12 ± 0.28.

Regarding QGPQGREGLAFLVSCPEGRADCAS [PWWP2B], the protein stability index was 3.77 ± 0.33 under setting [1] and 3.95 ± 0.26 under setting [2].

As for QHLKSKALRERWLLEGTPSSASEG [PALM], the protein stability index runs as follows: under setting [1], 4.25 ± 0.13; under setting [2], 4.33 ± 0.2.

As to QICTVKDIKAEPQPLSPASSSYSV [ATF6], the protein stability index by setting is: under setting [1], 4.16 ± 0.26; under setting [2], 3.98 ± 0.47.

Take QILELLVLEQFLTILPQEIQSRVQ [ZNF263]: the protein stability index reads like this: under setting [1], 3.06 ± 0.47; under setting [2], 3.43 ± 0.49.

For QIMKEGKATASEAVDCKWYIRAPP [NETO1], the protein stability index runs as follows: under setting [1], 3.24 ± 0.086; under setting [2], 3.24 ± 0.2.

The sequence QIQKYTDCLQFYVNSTLKELRRLF [RTN1] displayed a protein stability index under setting [1] of 2.73 ± 0.37 and a protein stability index under setting [2] of 2.55 ± 0.31.

In turn, QKQLEQTLQQFNIKLRPPGAEKPS [ARFIP2] gave a protein stability index under setting [1] of 3.92 ± 0.098 and a protein stability index under setting [2] of 4.07 ± 0.19.

QLDKNSEVYQEVQAMFDTLGIPKS [FAM98B]: the protein stability index runs as follows: under setting [1], 3.11 ± 0.69; under setting [2], 3.66 ± 0.59.

Regarding QLSTPHAVGVLLLGLVGYYIFRVA [DHCR7], the protein stability index runs as follows: under setting [1], 2.91 ± 0.44; under setting [2], 2.94 ± 0.35.

As to QMLLNVEANSAKVQEDLEAEFQSL [FSD1], the protein stability index under setting [1] is 4.92 ± 0.21 and the protein stability index under setting [2] amounted to 4.96 ± 0.2.

With QMPPVIVETARSHQRSSSESYTQS [PI4K2A], the protein stability index was determined as 4.6 ± 0.28 under setting [1] and 4.72 ± 0.16 under setting [2].

QPAGNRRGQARRLAPNFRWAIPNR [BEX3] came in with a protein stability index under setting [1] of 3.89 ± 0.14 and a protein stability index under setting [2] of 3.75 ± 0.32.

As to QPPEESQPPQSQAQVPPAAPHHHH [PLK2], the protein stability index is, setting by setting: under setting [1], 5.41 ± 0.11; under setting [2], 5.43 ± 0.18.

As for QQAGLLVTGEKEEPSRSASEADSE [PPEF2], the protein stability index came to 5.613 ± 0.041 under setting [1] and 5.56 ± 0.16 under setting [2].

Turning to QQENKVLKIELETYKLKCKALQEE [CCDC6], the protein stability index by setting is: under setting [1], 4.28 ± 0.12; under setting [2], 4.27 ± 0.14.

As to QQIAMDPEEVKSLDSNGAGEKSEN [BCL2L13], the protein stability index under setting [1] stood at 5.6 ± 0.45 and the protein stability index under setting [2] came to 5.63 ± 0.3.

Regarding QQLLPPFPSLHQSLPQNQCYMATT [EHMT1], the protein stability index is 3.29 ± 0.13 under setting [1] and 3.16 ± 0.17 under setting [2].

For QQNEDLRRMAESLRIPEGPIDQGP [FUT8], the protein stability index worked out at 4.96 ± 0.23 under setting [1] and 4.94 ± 0.17 under setting [2].

Turning to QQSDLGQYVTFLRSFSDKQKISLL [ALG2], the protein stability index stood at 2.22 ± 0.24 under setting [1] and 2.29 ± 0.23 under setting [2].

Consider QQVKKLEKALKKNVKLQELINHKK [CEP70], for which the protein stability index reads like this: under setting [1], 2.6 ± 0.28; under setting [2], 2.67 ± 0.41.

QRLVEALEENELTSLAEDLLGLTD [TRADD] displayed a protein stability index under setting [1] of 4.28 ± 0.14 and a protein stability index under setting [2] of 4.28 ± 0.17.

Regarding QRQAPGPARDYSQYYRTIEELQNK [KRT17], the protein stability index reads like this: under setting [1], 4.07 ± 0.15; under setting [2], 4.12 ± 0.063.

The sequence QRQQLPVTFGNKQKVLGKALSLIR [BTBD1] came in with a protein stability index under setting [1] of 2.81 ± 1 and a protein stability index under setting [2] of 2.2 ± 0.41.

For QSFGVASASSIKQILLEWCRSKTL [SMTNL2], the protein stability index turned out to be 2.41 ± 0.27 under setting [1] and 2.15 ± 0.39 under setting [2].

Turning to QSLDQEILLKVKTEIEEELKSLDK [BCL2L13], the protein stability index by setting is: under setting [1], 4.51 ± 0.42; under setting [2], 4.93 ± 0.24.

As to QSSKRSSRSVEDDKEGHLVCRIGD [CLK3], the protein stability index stood at 5.3 ± 0.43 under setting [1] and 5.17 ± 0.25 under setting [2].

With QVATSPDFDGKLKDIAGEFKEQLQ [ATL3], the protein stability index by setting is: under setting [1], 4.34 ± 0.35; under setting [2], 4.32 ± 0.38.

For QVEVDAQQCMLEILDTAGTEQFTA [RAP1B], the protein stability index runs as follows: under setting [1], 4.54 ± 0.12; under setting [2], 4.59 ± 0.16.

For the sequence QVPEEMSRCRNSYTEQELKPLTLE [DLC1], the protein stability index reads like this: under setting [1], 4.48 ± 0.26; under setting [2], 4.46 ± 0.29.

Consider QYLMATFVHVYITSFIRGPNPSKV [CDS1], for which the protein stability index is, setting by setting: under setting [1], 3.12 ± 0.17; under setting [2], 3.2 ± 0.34.

In turn, QYPNPLPVLSGAELEKAHLALIDY [VPS39] displayed a protein stability index under setting [1] of 3.55 ± 0.24 and a protein stability index under setting [2] of 3.58 ± 0.31.

With QYWPSRGTETHGLVQVTLLDTVEL [PTPRD], the protein stability index came to 2.13 ± 0.17 under setting [1] and 2.23 ± 0.49 under setting [2].

As for RADEPQWSLYPSDSQVSEEVKTRH [CHGB], the protein stability index runs as follows: under setting [1], 5.18 ± 0.068; under setting [2], 5.18 ± 0.064.

With RAGKMLMTLPLLRQTSTKAVQHFY [ESRRG], the protein stability index runs as follows: under setting [1], 2.28 ± 0.31; under setting [2], 2.16 ± 0.37.

With RAQEREQIKALNNKFASFIDKVRF [KRT71], the protein stability index was 2.1 ± 0.11 under setting [1] and 2.2 ± 0.3 under setting [2].
